Assay [1] has as its target lactate dehydrogenase (LDH). As to the kind of experiment: phage ELISA, 405 nm; LDH coated.
For assay [2], the target named is DGI-2 polypeptide (UniProt Q15004). The assay is described as follows: phage ELISA, 405 nm; DGI-2 signal over LDH signal. On the technique in general: An ELISA detects its analyte on a solid surface through an enzyme-linked reagent.
Assay [3] has the same target. The assay is described as follows: phage ELISA, 405 nm; DGI-2 coated.
Assay [4] addresses antibody raised against ETAG. As to the kind of experiment: phage ELISA, 405 nm; anti-E-tag antibody coated.
Assay [5] concerns the target lactate dehydrogenase (LDH). As to the kind of experiment: phage ELISA; LDH coated.

DGI-2 polypeptide, sequence (Q15004 whole entry): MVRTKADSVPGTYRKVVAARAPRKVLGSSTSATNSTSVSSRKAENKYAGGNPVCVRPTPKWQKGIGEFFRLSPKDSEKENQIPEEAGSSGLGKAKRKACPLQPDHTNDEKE

B1: DGI-2-20C-3-A12 (peptide, not shown: large carriers)
peptide: GEVDCVYALTHRFLSPQVQYHHRPVAAAGAPVPYPDPLEPRP
Consider B1, for which the LDH (OD) in assay [1] was 0.9 OD. This molecule also gave a DGI-2/LDH (OD) in assay [2] of 1. The molecule further displayed a DGI-2 (OD) in assay [3] of 0.9 OD. The molecule also yielded an ETAG (OD) in assay [4] of 8.1 OD.

B2: DGI9-20M-4-E3 (peptide, not shown: large carriers)
peptide: MAGFRGSGLSGYSEARLPRVGAPVPYPDPLEPR
With B2, the LDH (ratio over background) in assay [5] turned out to be 1.

B3: DGI-2-40F-3-A7 (peptide, not shown: large carriers)
peptide: CAYRWGLFRGPGRVDYDLQVVGIMMWPGPIPDRSSRGSVAAAAGAPVPYPDPLEPRP
As for B3, the LDH (OD) in assay [1] was 0.8 OD.

B4: DGI-2-20F-3-C3 (peptide, not shown: large carriers)
peptide: FSSVLGLLDRRGVPVVVGEDAAAGAPVPYPDPLEPRP
In the case of B4, the LDH (OD) in assay [1] was 0.9 OD.

B5: DGI-2-20F-3-C2 (peptide, not shown: large carriers)
peptide: MAVLPAARDFGGVVQGGVSGAAAGAPVPYPDPLEPRP
B5: the LDH (OD) in assay [1] was 1 OD.

B6: DGI-2-20C-3-D12 (peptide, not shown: large carriers)
peptide: LVIQCSASVVACDLYWNYVGCLAAGAAAGAPVPYPDPLEPRP
Molecule B6 displayed an LDH (OD) in assay [1] of 1 OD.

B7: DGI-2-20R-4-G32 (peptide, not shown: large carriers)
peptide: LSVFRPGQFPHVGARGVSRTAAAGAPVPYPDPLEPRP
Take B7: the LDH (OD) in assay [1] was determined as 1.1 OD.

B8: DGI-2-40F-3-B95 (peptide, not shown: large carriers)
peptide: DYKTCVSQHVHPLFGEYFYHKVTHMSILSPTFRVTSLYGKAAAGAPVPYPDPLEPRP
Consider B8, for which the LDH (OD) in assay [1] is 0.8 OD.

B9: DGI9-20M-4-A414 (peptide, not shown: large carriers)
peptide: FLLQDFIMDAGSFVKPIGVGGAPVPYPDPLEPR
Take B9: in assay [5], the LDH (ratio over background) amounted to 1.1.

B10: DGI9-20M-4-A12 (peptide, not shown: large carriers)
peptide: SRLALSSQHGLSLVAGRRRGGAPVPYPDPLEPR
For B10, in assay [5], the LDH (ratio over background) was 0.9.

B11: DGI-2-40F-3-A4 (peptide, not shown: large carriers)
peptide: WFTHVVEKFAAAGAPVPYPDPLEPRP
For the molecule B11, the LDH (OD) in assay [1] was found to be 0.8 OD. This molecule gave a DGI-2/LDH (OD) in assay [2] of 1.3. The molecule further yielded a DGI-2 (OD) in assay [3] of 1.1 OD. In addition, the ETAG (OD) in assay [4] is 6.7 OD.

B12: DGI-2-40F-3-B6 (peptide, not shown: large carriers)
peptide: QSNVWVLVGVIMQGVWYQRQHYCVYVMLLSDQVSVLLAVAAAAGAPVPYPDPLEPRP
B12 came in with an LDH (OD) in assay [1] of 0.8 OD.

B13: DGI-2-40F-3-B4 (peptide, not shown: large carriers)
peptide: LWLPCGLLVRPAQFYFYFSPLRHFLSSSVGSLSFPLSLLVAAAGAPVPYPDPLEPRP
In assay [1], B13 displayed an LDH (OD) of 0.8 OD.

B14: DGI-2-40F-3-B72 (peptide, not shown: large carriers)
peptide: PKDGAAFKGSDFIQGGQTVMERAPALWWRDGGGQWEAPSTAAAGAPVPYPDPLEPRP
In turn, B14 returned an LDH (OD) in assay [1] of 0.7 OD.

B15: DGI-2-40F-3-D3 (peptide, not shown: large carriers)
peptide: VQFAMTLSSRLWQHARHPLTDDAPPTVSFGTRRETLAGKAAAAGAPVPYPDPLEPRP
Consider B15, for which the LDH (OD) in assay [1] is 0.9 OD.

B16: DGI-2-40F-3-B1 (peptide, not shown: large carriers)
peptide: HGTRLRGVDYVMTWAGWQGYSSRKHVQQAVAGSSPGSDELAAAGAPVPYPDPLEPRP
B16 had an LDH (OD) in assay [1] of 0.7 OD.

B17: DGI-2-20C-3-B3 (peptide, not shown: large carriers)
peptide: DYKGRTMTSPIMSALPVYDRLHGAIGSRGQNMDAAAGAPVPYPDPLEPRP
B17 gave an LDH (OD) in assay [1] of 0.9 OD. Also, the DGI-2/LDH (OD) in assay [2] stood at 0.9. In addition, in assay [3], the DGI-2 (OD) came to 0.8 OD. Further, in assay [4], the ETAG (OD) was determined as 7.7 OD.

B18: DGI-2-40F-3-A12 (peptide, not shown: large carriers)
peptide: RRTQPAYRSGADDRTSGFYCYVTSALSAGAWMPFLPRRLAAAAGAPVPYPDPLEPRP
B18 returned an LDH (OD) in assay [1] of 0.8 OD.

B19: DGI-2-40F-3-A1 (SEQ ID NO: 187) (peptide, not shown: large carriers)
peptide: QYFARGSFQFGLSHVLSAAAAFHLYVFCKRLSRGFGIKDDAAAGAPVPYPDPLEPRP
For B19, the LDH (OD) in assay [1] is 0.7 OD.

B20: DGI-2-40F-3-C10 (peptide, not shown: large carriers)
peptide: WRARSSGYLFALTPNFGVPHPSSALRRMHGLMARDLRPVAAAGAPVPYPDPLEPRP
Regarding B20, in assay [1], the LDH (OD) was 0.9 OD. For the same molecule, the DGI-2/LDH (OD) in assay [2] was 1.3. For the same molecule, the DGI-2 (OD) in assay [3] stood at 1.1 OD. In assay [4], this molecule had an ETAG (OD) of 7.7 OD.

B21: DGI-2-40F-3-A24 (peptide, not shown: large carriers)
peptide: RCFQDGRMLALSPTYLIRRSVSPLVVGPLPTPAAAGAPVPYPDPLEPRP
Consider B21, for which the LDH (OD) in assay [1] was 0.9 OD.

B22: DGI-2-40F-3-C7 (peptide, not shown: large carriers)
peptide: HPWVTNMLVFQRPPPPGFWLSDTTPRQRNGLGQVERPSVDAAAGAPVPYPDPLEPRP
For the molecule B22, the LDH (OD) in assay [1] stood at 0.8 OD.

B23: DGI-2-20F-3-C5 (peptide, not shown: large carriers)
peptide: LGNASSLIPFLRSVQESGVRAAAGAPVPYPDPLEPRP
B23 showed an LDH (OD) in assay [1] of 0.9 OD. The molecule further had a DGI-2/LDH (OD) in assay [2] of 1. The molecule also gave a DGI-2 (OD) in assay [3] of 1 OD. In assay [4], this molecule showed an ETAG (OD) of 17.7 OD.

B24: DGI-2-40F-3-B10 (peptide, not shown: large carriers)
peptide: MQAASTLSTYMGAIRMGYPILHWDRGGVQRVDPGLYRGRVAAAGAPVPYPDPLEPRP
The molecule B24 came in with an LDH (OD) in assay [1] of 1 OD.

B25: DGI9-20M-4-A627 (peptide, not shown: large carriers)
peptide: WDWSRFGAQLRGAILGRATGGAPVPYPDPLEPR
B25: the LDH (ratio over background) in assay [5] is 0.9.

B26: DGI-2-40F-3-C52 (peptide, not shown: large carriers)
peptide: GLLFTSSPYQCFWVHCTLTMSPLSVLGDLSSTIGRMRASRAAAGAPVPYPDPLEPRP
As to B26, the LDH (OD) in assay [1] turned out to be 0.8 OD.

B27: DGI-2-40F-4-E1130 (peptide, not shown: large carriers)
peptide: VCRLCRLCRFSMRCGGLSLVLGSAAAFFCEVFVGFCVAAAGAPVPYPDPLEPRP
With B27, the LDH (OD) in assay [1] worked out at 0.9 OD. The same molecule showed a DGI-2/LDH (OD) in assay [2] of 3.2. Further, the DGI-2 (OD) in assay [3] amounted to 2.9 OD. In assay [4], this molecule had an ETAG (OD) of 8.3 OD.

B28: DGI-2-40F-3-A8 (peptide, not shown: large carriers)
peptide: GQISLAGVAVCSSERMLLAFSSRVFLPGLKVPVTTSQRGSAAAGAPVPYPDPLEPRP
In assay [1], B28 displayed an LDH (OD) of 0.8 OD.

B29: DGI-2-40F-3-D1 (peptide, not shown: large carriers)
peptide: MGQGFHYNRQPYMSHQCYAFTFSTPFLDGDRIPHGVSRGLAAAGAPVPYPDPLEPRP
B29 registered an LDH (OD) in assay [1] of 0.8 OD.

B30: DGI-2-20R-4-E5 (peptide, not shown: large carriers)
peptide: LHRLGQSMGGTLDHLQGWGVAAAGAPVPYPDPLEPRP
On to B30, for which the LDH (OD) in assay [1] stood at 1.1 OD.

B31: DGI-2-40F-3-B5 (peptide, not shown: large carriers)
peptide: RSRSSSGASGSMLRVQNHMVLGSWMVRQPMGSMTPFHGHGAAAGAPVPYPDPLEPRP
In turn, B31 yielded an LDH (OD) in assay [1] of 0.9 OD.

B32: DGI-2-20F-3-B1 (peptide, not shown: large carriers)
peptide: LSRIWRGVIESAREVESRGIAAAGAPVPYPDPLEPRP
Consider B32, for which the LDH (OD) in assay [1] is 0.9 OD.

B33: DGI-2-40F-3-D9 (peptide, not shown: large carriers)
peptide: RRTSADTDQLSRWEGAQAFSSLRSALSERLDSLRPGLPPSAAAGAPVPYPDPLEPRP
For the molecule B33, the LDH (OD) in assay [1] is 0.8 OD.

These data come from patent US7056679.
